One molecule from publication PMC4480132, “MAF1 represses CDKN1A through a Pol III-dependent mechanism” can be followed below.

In this data set the target is T1, MAF1 (His-tagged, Fitzgerald 80R-1955) (UniProt Q9H063 1-256).
T1 sequence: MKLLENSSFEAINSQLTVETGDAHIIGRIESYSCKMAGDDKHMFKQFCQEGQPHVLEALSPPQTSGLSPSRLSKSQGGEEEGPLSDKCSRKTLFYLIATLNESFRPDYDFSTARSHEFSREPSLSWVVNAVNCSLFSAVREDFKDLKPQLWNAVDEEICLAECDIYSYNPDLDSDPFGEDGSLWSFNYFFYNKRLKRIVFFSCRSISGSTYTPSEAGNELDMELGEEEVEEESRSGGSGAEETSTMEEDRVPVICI
Nature of the data set: colorimetric DNA-protein binding assay (ab117139); 40 ng biotin probe, 500 ng MAF1; IP-qPCR: 20 mM HEPES pH 7.6, 150 mM NaCl, 0.25 mM EDTA, 10% glycerol, 0.2% NP40, 1 mM DTT, 200 ng BSA, 50 ul, 20 ng DNA, 400 ng MAF1, 4 C/ice; colorimetric: Abcam ab117139 kit conditions. Conditions: protein: commercial; tags: His6; label: 5' biotin (probe). (Quantitative PCR measures a nucleic acid by following its amplification.)

B1: p21 A-box probe (CDKN1A MIR3) (dsDNA)
DNA 1: AATCAACAACTTTGTATACTTAAGTTCAGTGGACCTCAATTTCCTCATCTGTGAAATAAA
DNA 2: TTTATTTCACAGATGAGGAAATTGAGGTCCACTGAACTTAAGTATACAAAGTTGTTGATT
Take B1: the binding result is recorded as “binds”.
